Source: paper PMC11672753

Target: SARS-CoV-2 6P-mut7 spike protein (SARS-CoV-2) (UniProt P0DTC2)
Test: cryo-EM structure

COVA2-15 Fab
stoichiometry N (Fab per spike trimer): 3
